Legend:
[1] = biological target: T1, RbAB (Homo sapiens, UniProt P06400); assay: Isothermal titration calorimetry of E2F constructs binding to RbAB; conditions: ITC, binding to pRbAB
T1 construct: residues 372 to 589 of the A domain and 636 to 787 of the B domain; GST (with Prescission protease site) (N, cleaved yes); engineered thrombin site (LVPRGS) at the A-domain end of the A-B linker (C, cleaved yes); engineered thrombin site (LVPRGS) at the B-domain end of the A-B linker (N, cleaved yes); made in house; host or cells: E. coli
T1 sequence (P06400 372-589): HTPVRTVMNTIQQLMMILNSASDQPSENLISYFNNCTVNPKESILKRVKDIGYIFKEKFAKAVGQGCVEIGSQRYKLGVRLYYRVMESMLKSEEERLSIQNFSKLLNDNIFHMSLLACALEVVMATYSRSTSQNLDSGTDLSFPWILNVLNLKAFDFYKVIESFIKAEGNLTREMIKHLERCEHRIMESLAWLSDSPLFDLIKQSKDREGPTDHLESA
T1 sequence (P06400 636-787): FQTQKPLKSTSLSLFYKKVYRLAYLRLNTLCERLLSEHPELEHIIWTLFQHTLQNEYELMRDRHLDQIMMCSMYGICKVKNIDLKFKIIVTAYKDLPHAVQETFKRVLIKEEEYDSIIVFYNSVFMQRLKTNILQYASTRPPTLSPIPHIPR
Description: The panel represents the experiment where E2F(243-437) is titrated into RbAB.
(B) Summary of dissociation constants obtained by ITC measurements. The quoted errors are those produced by fitting the data to a two-state model. For the interaction of E2F(243-437) to RbAB and RbABC the affinities are too high to measure reliably and we have therefore quoted the upper limits of the dissociation constants.
(§1) Binding of the various E2F constructs to RbAB and RbABC was measured by isothermal titration calorimetry using a MicroCal Omega VP-ITC machine (MicroCal Inc., Northampton, USA). The E2F constructs at a concentration between 100-150 μM were titrated into 12-15 μM Rb at a temperature of 22° C. Proteins were dialysed against 50 mM Tris pH 7.6, 100 mM NaCl and 1 mM TCEP. After subtraction of the dilution heats, calorimetric data was analysed using the evaluation software MicroCal Origin v5.0 (MicroCal Software Inc.). For all of the titrations, the stoichiometry of ligand binding to Rb was very close to 1.0. For E2F(243-437) binding to Rb, the binding affinity and the heat change associated with binding were such that we could only establish that binding was tighter than 10 nM.

[2] = biological target: T2, RbAB and RbABC (Homo sapiens, UniProt P06400); assay: Competition experiment (Ni column, SDS-PAGE): partition of E2F(243-437) between RbAB and RbABC; type: binding; conditions: His6-RbABC against non-tagged RbAB, proteins mixed at 40 μM
T2 construct: non-tagged RbAB (residues 372-787); His6-RbABC (RESIDUES 380-929); made in house; host or cells: E. coli
T2 sequence (P06400 372-787 limits assumed): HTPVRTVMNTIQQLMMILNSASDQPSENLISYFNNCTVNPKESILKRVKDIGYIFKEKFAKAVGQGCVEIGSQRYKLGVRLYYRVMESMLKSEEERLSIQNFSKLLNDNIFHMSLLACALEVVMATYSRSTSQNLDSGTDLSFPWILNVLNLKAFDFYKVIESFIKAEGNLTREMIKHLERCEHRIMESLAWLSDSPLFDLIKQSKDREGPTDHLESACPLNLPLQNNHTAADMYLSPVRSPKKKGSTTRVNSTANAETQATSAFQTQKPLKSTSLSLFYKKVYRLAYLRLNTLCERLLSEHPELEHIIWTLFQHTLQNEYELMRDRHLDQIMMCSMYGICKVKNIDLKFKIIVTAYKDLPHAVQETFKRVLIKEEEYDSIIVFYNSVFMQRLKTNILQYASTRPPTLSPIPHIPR
T2 sequence (P06400 380-928 limits assumed): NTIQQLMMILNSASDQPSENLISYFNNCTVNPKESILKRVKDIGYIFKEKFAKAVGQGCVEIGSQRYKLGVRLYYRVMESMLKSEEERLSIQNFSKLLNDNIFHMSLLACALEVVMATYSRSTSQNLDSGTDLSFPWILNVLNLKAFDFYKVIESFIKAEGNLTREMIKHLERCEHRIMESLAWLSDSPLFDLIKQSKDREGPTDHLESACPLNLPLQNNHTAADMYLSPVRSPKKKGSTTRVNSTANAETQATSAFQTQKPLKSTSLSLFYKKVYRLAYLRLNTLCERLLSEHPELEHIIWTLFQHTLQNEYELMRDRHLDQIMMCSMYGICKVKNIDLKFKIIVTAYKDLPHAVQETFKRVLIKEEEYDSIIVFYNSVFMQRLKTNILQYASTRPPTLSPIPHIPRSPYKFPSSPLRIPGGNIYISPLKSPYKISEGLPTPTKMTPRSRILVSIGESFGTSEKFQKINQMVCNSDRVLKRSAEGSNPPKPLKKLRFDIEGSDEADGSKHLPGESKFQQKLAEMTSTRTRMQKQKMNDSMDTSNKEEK
Description: as §1
The proteins used in these experiments were His6-RbABC (RESIDUES 380-929); MW 66.07 kDa, non-tagged RbAB (residues 372-787); MW 48.67 KDa, are His6-RbAB (residues 376-792); MW 49.86 KDa, E2F(243-437); MW 21.45 KDa HPV E7 (residues 17-98); MW 9.38 KDa and E2F(409-426); MW 2.12 KDa. Protein concentrations were carefully determined by u.v. spectroscopy and confirmed by ITC titrations. The small acidic E2F proteins stain much weaker than Rb with Coomassie on SDS-PAGE. For all gel lanes contained a final RbAB concentration of ca. 7 μM. […]

B1: E2F(243-437): Recombinant human E2F1(243-437) expressed in E. coli (protein, UniProt Q01094 243-437, looked up, fragment)
chain: LAYVTCQDLRSIADPAEQMVMVIKAPPETQLQAVDSSENFQISLKSKQGPIDVFLCPEETVGGISPGKTPSQEVTSEEENRATDSATIVSPPPSSPPSSLTTDPSQSLLSLEQEPLLSRMGSLRAPVDEDRLSPLVAADSLLEHVREDFSGLLPEEFISLSPPHEALDYHFGLEEGEGIRDLFDCDFGDLTPLDF
binds stronger than either of the two shorter E2F fragments [1]: at least 16 fold
partitioning between the two pRb species [2]: approximately equal partitioning

From patent US20060234906A1, “Structure of a complex of retinoblastoma protein bound to e2f, and uses thereof” (priority 2002, published 2006)
